Substrate in this series: O=C1CCCCC1
Nature of the series: purified protein. Format: biochemical, Streptosporangium roseum. The note with it: 30 mM cyclopropylamine, 0.5 mM NADPH.

B1: SrIRED (Streptosporangium roseum DSM 43021; P203A/T241G) (protein)
chain: MRDTDVTVLGLGLMGQALAGAFLKDGHATTVWNRSEGKAGQLAEQGAVLASSARDAAEASPLVVVCVSDHAAVRAVLDPLGDVLAGRVLVNLTSGTSEQARATAEWAAERGITYLDGAIMAIPQVVGTADAFLLYSGPEAAYEAHEPTLRSLGAGTTYLGADHGLSSLYDVALLGIMWGTLNSFLHGAALLGTAKVEATTFAAFANRWIEAVTGFVSAYAGQVDQGAYPALDATIDTHVAGVDHLIHESEAAGVNTELPRLVRTLADRALAGGQGGLGYAAMIEQFRSPSA
For the protein B1, under “Tris pH 8, 25 °C”, the Km was found to be 5100 ± 400 µM and the kcat worked out at 49.3 ± 1.5 s⁻¹.

B2: SrIRED (Streptosporangium roseum DSM 43021; T241A) (protein)
chain: MRDTDVTVLGLGLMGQALAGAFLKDGHATTVWNRSEGKAGQLAEQGAVLASSARDAAEASPLVVVCVSDHAAVRAVLDPLGDVLAGRVLVNLTSGTSEQARATAEWAAERGITYLDGAIMAIPQVVGTADAFLLYSGPEAAYEAHEPTLRSLGAGTTYLGADHGLSSLYDVALLGIMWGTLNSFLHGAALLGTAKVEATTFAPFANRWIEAVTGFVSAYAGQVDQGAYPALDATIDTHVAAVDHLIHESEAAGVNTELPRLVRTLADRALAGGQGGLGYAAMIEQFRSPSA
As for B2, where the note is “Tris pH 8, 25 °C”, the Km is 2310 ± 330 µM and the turnover number (kcat) was 5.77 ± 0.24 s⁻¹.

B3: SrIRED (Streptosporangium roseum DSM 43021; E146V) (protein)
chain: MRDTDVTVLGLGLMGQALAGAFLKDGHATTVWNRSEGKAGQLAEQGAVLASSARDAAEASPLVVVCVSDHAAVRAVLDPLGDVLAGRVLVNLTSGTSEQARATAEWAAERGITYLDGAIMAIPQVVGTADAFLLYSGPEAAYEAHVPTLRSLGAGTTYLGADHGLSSLYDVALLGIMWGTLNSFLHGAALLGTAKVEATTFAPFANRWIEAVTGFVSAYAGQVDQGAYPALDATIDTHVATVDHLIHESEAAGVNTELPRLVRTLADRALAGGQGGLGYAAMIEQFRSPSA
Take B3: under “Tris pH 8, 25 °C”, the Michaelis constant (Km) came out at 2400 ± 300 µM and the kcat worked out at 1.7 ± 0.1 s⁻¹.

B4: SrIRED (Streptosporangium roseum DSM 43021; T241S) (protein)
chain: MRDTDVTVLGLGLMGQALAGAFLKDGHATTVWNRSEGKAGQLAEQGAVLASSARDAAEASPLVVVCVSDHAAVRAVLDPLGDVLAGRVLVNLTSGTSEQARATAEWAAERGITYLDGAIMAIPQVVGTADAFLLYSGPEAAYEAHEPTLRSLGAGTTYLGADHGLSSLYDVALLGIMWGTLNSFLHGAALLGTAKVEATTFAPFANRWIEAVTGFVSAYAGQVDQGAYPALDATIDTHVASVDHLIHESEAAGVNTELPRLVRTLADRALAGGQGGLGYAAMIEQFRSPSA
B4: where the note is “Tris pH 8, 25 °C”, the Km was determined as 2310 ± 510 µM and the kcat was found to be 6.02 ± 0.39 s⁻¹.

B5: SrIRED (Streptosporangium roseum DSM 43021) (protein)
chain: MRDTDVTVLGLGLMGQALAGAFLKDGHATTVWNRSEGKAGQLAEQGAVLASSARDAAEASPLVVVCVSDHAAVRAVLDPLGDVLAGRVLVNLTSGTSEQARATAEWAAERGITYLDGAIMAIPQVVGTADAFLLYSGPEAAYEAHEPTLRSLGAGTTYLGADHGLSSLYDVALLGIMWGTLNSFLHGAALLGTAKVEATTFAPFANRWIEAVTGFVSAYAGQVDQGAYPALDATIDTHVATVDHLIHESEAAGVNTELPRLVRTLADRALAGGQGGLGYAAMIEQFRSPSA
Regarding B5, for the setting “100 mM Tris pH 8.0, 25 °C”, the Michaelis constant (Km) stood at 3520 ± 440 µM and the turnover number (kcat) stood at 2.11 ± 0.08 s⁻¹.

Broadly, the Km is the concentration of substrate that gives half-maximal velocity. As usually defined, the kcat is the maximal rate divided by the concentration of active sites.
